Measured values reported in PMC5517563 (Scientific Reports, 2017).

Assays:
[1] = molecular target: T1, MtACK (Methanosarcina thermophila acetate kinase) (Methanosarcina thermophila, UniProt P38502, G331Q/I332M); test: reverse modified hydroxamate assay ([…] nm); format: biochemical; conditions: read-out: ATP IC50 (mM) / Acetate-forming direction
T1 construct: gene ackA; recombinant, produced in E. coli Rosetta2 (DE3) pLysS
T1 sequence (P38502 1-408 G331Q/I332M): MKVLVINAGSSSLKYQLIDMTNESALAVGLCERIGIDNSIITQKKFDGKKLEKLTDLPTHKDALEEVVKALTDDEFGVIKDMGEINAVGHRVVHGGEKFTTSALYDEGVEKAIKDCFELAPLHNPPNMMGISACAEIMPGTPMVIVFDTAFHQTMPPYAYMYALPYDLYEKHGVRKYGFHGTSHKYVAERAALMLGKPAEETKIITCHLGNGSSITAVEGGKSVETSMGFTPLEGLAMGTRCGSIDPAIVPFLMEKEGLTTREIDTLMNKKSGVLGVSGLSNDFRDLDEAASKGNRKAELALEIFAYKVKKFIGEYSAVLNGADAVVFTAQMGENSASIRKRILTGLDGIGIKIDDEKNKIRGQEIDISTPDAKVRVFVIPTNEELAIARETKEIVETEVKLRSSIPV

[2] = molecular target: T2, MtACK (Methanosarcina thermophila acetate kinase) (Methanosarcina thermophila, UniProt P38502); test: reverse modified hydroxamate assay ([…] nm); format: biochemical; conditions: read-out: ATP IC50 (mM) / Acetate-forming direction
T2 construct: gene ackA; recombinant, produced in E. coli Rosetta2 (DE3) pLysS
T2 sequence (P38502 1-408): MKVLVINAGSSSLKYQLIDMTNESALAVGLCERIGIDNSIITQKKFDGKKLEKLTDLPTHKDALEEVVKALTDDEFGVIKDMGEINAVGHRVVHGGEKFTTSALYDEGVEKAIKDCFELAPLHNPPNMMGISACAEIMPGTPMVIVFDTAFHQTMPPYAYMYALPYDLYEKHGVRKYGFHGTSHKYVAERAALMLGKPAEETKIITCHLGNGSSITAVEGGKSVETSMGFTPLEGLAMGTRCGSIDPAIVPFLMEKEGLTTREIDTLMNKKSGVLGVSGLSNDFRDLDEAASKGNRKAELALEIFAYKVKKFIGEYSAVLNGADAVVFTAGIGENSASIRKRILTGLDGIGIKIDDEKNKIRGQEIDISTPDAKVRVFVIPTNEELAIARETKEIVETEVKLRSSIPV

[3] = molecular target: T2, MtACK (Methanosarcina thermophila acetate kinase); test: hydroxamate assay ([…] nm); format: biochemical; conditions: acetyl phosphate-forming direction; MgATP, co-substrate acetate; 100 mM Tris pH 7.5, 600 mM hydroxylamine, 37 °C; apparent
[4] = molecular target: T1, MtACK (Methanosarcina thermophila acetate kinase); test: hydroxamate assay ([…] nm); format: biochemical; conditions: acetyl phosphate-forming direction; MgATP, co-substrate acetate; 100 mM Tris pH 7.5, 600 mM hydroxylamine, 37 °C; apparent
[5] = molecular target: T3, EhACK (Entamoeba histolytica acetate kinase) (Entamoeba histolytica, UniProt C4M1C3, D272A/M324I/Q323G/R274A); test: biochemical
T3 construct: gene EHI_170010

[6] = molecular target: T4, EhACK (Entamoeba histolytica acetate kinase) (Entamoeba histolytica, UniProt C4M1C3, M324I/Q323G); test: biochemical
T4 construct: gene EHI_170010

[7] = molecular target: T5, EhACK (Entamoeba histolytica acetate kinase) (Entamoeba histolytica, UniProt C4M1C3, M324A/Q323A); test: biochemical
T5 construct: gene EHI_170010

[8] = molecular target: T6, EhACK (Entamoeba histolytica acetate kinase) (Entamoeba histolytica, UniProt C4M1C3); test: reverse modified hydroxamate assay ([…] nm); format: biochemical; conditions: read-out: ATP IC50 (mM) / Acetate-forming direction
T6 construct: gene EHI_170010; recombinant, produced in E. coli YBS121 delta-ack delta-pta (pREP4)
T6 sequence (C4M1C3 1-392): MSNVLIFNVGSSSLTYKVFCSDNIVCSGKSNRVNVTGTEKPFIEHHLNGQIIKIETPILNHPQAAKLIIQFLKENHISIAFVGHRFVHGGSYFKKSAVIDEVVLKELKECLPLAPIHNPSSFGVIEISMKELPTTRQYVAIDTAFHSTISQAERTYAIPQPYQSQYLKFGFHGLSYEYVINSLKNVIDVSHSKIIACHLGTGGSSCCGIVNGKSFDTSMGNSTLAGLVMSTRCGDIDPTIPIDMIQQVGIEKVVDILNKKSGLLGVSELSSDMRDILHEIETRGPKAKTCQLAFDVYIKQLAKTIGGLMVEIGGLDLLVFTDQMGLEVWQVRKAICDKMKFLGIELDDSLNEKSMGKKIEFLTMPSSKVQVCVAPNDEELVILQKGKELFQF

purified protein [9] = substrate: Nc1ncnc2c1ncn2[C@@H]1O[C@H](COP(=O)(O)OP(=O)(O)O)[C@@H](O)[C@H]1O; test: purified protein; conditions: acetate-forming direction, MgADP, co-substrate acetyl phosphate, 100 mM Tris pH 7.5, 37 °C, apparent
purified protein [10] = substrate: CC(=O)OP(=O)(O)O; test: purified protein; conditions: acetate-forming direction, apparent
purified protein [11] = substrate: CC(=O)O; test: purified protein; conditions: acetyl phosphate-forming direction, co-substrate MgATP, 100 mM Tris pH 7.5, 600 mM hydroxylamine, 37 °C, apparent, pH 7.5
purified protein [12] = substrate: O=P(O)(O)O; test: purified protein; conditions: acetate-forming direction, co-substrate acetyl phosphate, 10 mM MgCl2, 100 mM Tris-HCl pH 7.0, 37 °C, apparent, pH 7.0
purified protein [13] = substrate: O=P(O)(O)OP(=O)(O)O; test: purified protein; conditions: acetyl phosphate-forming direction, co-substrate acetate, 5 mM MgCl2, morpholinoethanesulfonic acid pH 5.5, 600 mM hydroxylamine, 45 °C, apparent
[14] = co-substrate MgADP, 100 mM Tris pH 7.5, 37 °C
[15] = co-substrate Pi, 10 mM MgCl2, 100 mM Tris-HCl pH 7.0, 37 °C

Molecule: O=P(O)(O)OP(=O)(O)O [PPi]
- IC50 [1]: 4 ± 0.28 mM
- IC50 [2]: 3.3 ± 0.06 mM

Molecule: Nc1ncnc2c1ncn2[C@@H]1O[C@H](COP(=O)(O)OP(=O)(O)OP(=O)(O)O)[C@@H](O)[C@H]1O [ATP]
- Km [3]: 1700 ± 30 µM
- Km [4]: 9400 ± 270 µM
- IC50 [5]: 2.4 ± 0.19 mM
- IC50 [6]: 4.2 ± 0.3 mM
- IC50 [7]: 4.8 ± 0.09 mM
- IC50 [8]: 6.1 ± 0.05 mM

B1: MtACK (Methanosarcina thermophila acetate kinase) (Methanosarcina thermophila) (protein)
chain: MKVLVINAGSSSLKYQLIDMTNESALAVGLCERIGIDNSIITQKKFDGKKLEKLTDLPTHKDALEEVVKALTDDEFGVIKDMGEINAVGHRVVHGGEKFTTSALYDEGVEKAIKDCFELAPLHNPPNMMGISACAEIMPGTPMVIVFDTAFHQTMPPYAYMYALPYDLYEKHGVRKYGFHGTSHKYVAERAALMLGKPAEETKIITCHLGNGSSITAVEGGKSVETSMGFTPLEGLAMGTRCGSIDPAIVPFLMEKEGLTTREIDTLMNKKSGVLGVSGLSNDFRDLDEAASKGNRKAELALEIFAYKVKKFIGEYSAVLNGADAVVFTAGIGENSASIRKRILTGLDGIGIKIDDEKNKIRGQEIDISTPDAKVRVFVIPTNEELAIARETKEIVETEVKLRSSIPV
- Km (purified protein [9]): 1800 ± 130 µM
- kcat (purified protein [9]): 1915 ± 15 s⁻¹
- kcat/Km (purified protein [9]): 1.07e+06 ± 69000 M⁻¹ s⁻¹
- Km (purified protein [10]; [14]): 1200 ± 90 µM
- kcat (purified protein [10]; [14]): 1550 ± 54 s⁻¹
- kcat/Km (purified protein [10]; [14]): 1.29e+06 ± 56000 M⁻¹ s⁻¹
- Km (purified protein [11]): 20000 ± 300 µM
- kcat (purified protein [11]): 789 s⁻¹
- kcat/Km (purified protein [11]): 39000 M⁻¹ s⁻¹

B2: MtACK (Methanosarcina thermophila acetate kinase) (Methanosarcina thermophila; G331Q/I332M) (protein)
chain: MKVLVINAGSSSLKYQLIDMTNESALAVGLCERIGIDNSIITQKKFDGKKLEKLTDLPTHKDALEEVVKALTDDEFGVIKDMGEINAVGHRVVHGGEKFTTSALYDEGVEKAIKDCFELAPLHNPPNMMGISACAEIMPGTPMVIVFDTAFHQTMPPYAYMYALPYDLYEKHGVRKYGFHGTSHKYVAERAALMLGKPAEETKIITCHLGNGSSITAVEGGKSVETSMGFTPLEGLAMGTRCGSIDPAIVPFLMEKEGLTTREIDTLMNKKSGVLGVSGLSNDFRDLDEAASKGNRKAELALEIFAYKVKKFIGEYSAVLNGADAVVFTAQMGENSASIRKRILTGLDGIGIKIDDEKNKIRGQEIDISTPDAKVRVFVIPTNEELAIARETKEIVETEVKLRSSIPV
- Km (purified protein [9]): 5700 ± 560 µM
- kcat (purified protein [9]): 12 ± 0.5 s⁻¹
- kcat/Km (purified protein [9]): 2000 ± 140 M⁻¹ s⁻¹

B3: EhACK (Entamoeba histolytica acetate kinase) (Entamoeba histolytica HM-1:IMSS) (protein)
chain: MSNVLIFNVGSSSLTYKVFCSDNIVCSGKSNRVNVTGTEKPFIEHHLNGQIIKIETPILNHPQAAKLIIQFLKENHISIAFVGHRFVHGGSYFKKSAVIDEVVLKELKECLPLAPIHNPSSFGVIEISMKELPTTRQYVAIDTAFHSTISQAERTYAIPQPYQSQYLKFGFHGLSYEYVINSLKNVIDVSHSKIIACHLGTGGSSCCGIVNGKSFDTSMGNSTLAGLVMSTRCGDIDPTIPIDMIQQVGIEKVVDILNKKSGLLGVSELSSDMRDILHEIETRGPKAKTCQLAFDVYIKQLAKTIGGLMVEIGGLDLLVFTDQMGLEVWQVRKAICDKMKFLGIELDDSLNEKSMGKKIEFLTMPSSKVQVCVAPNDEELVILQKGKELFQF
- Km (purified protein [12]): 14000 ± 1200 µM
- kcat (purified protein [12]): 196 s⁻¹
- kcat/Km (purified protein [12]): 14000 M⁻¹ s⁻¹
- Km (purified protein [13]): 2100 ± 330 µM
- kcat (purified protein [13]): 0.9 ± 0.03 s⁻¹
- kcat/Km (purified protein [13]): 440 ± 60 M⁻¹ s⁻¹
- Km (purified protein [10]; [15]): 570 ± 30 µM
- kcat (purified protein [10]; [15]): 266 ± 12 s⁻¹
- kcat/Km (purified protein [10]; [15]): 467000 ± 44000 M⁻¹ s⁻¹
